Results taken from the DeepSol protein solubility set.

Test: soluble on expression in E. coli; label from the status in PepcDB or PDB records

| Sequence | soluble on expression in E. coli |
| --- | --- |
| MNILQFNVRLAEGGAAGVALDLHLRALQKGLTSHFVYGYGKGGKKSVSHHRYPQVIKQTPRGTAIANIALFRFLNRDLFGNLDNLYRTVIQTSGPLVLHFHVLHSYWLNLADIVTFCEKVKAQKPDVTLVWTLHDHWSVTGRCAFTDGCEGWKSGCQKCPTLSNYPPVRVDRAHQLIDGKRQRFRDMLRLGCRFISPSQHVAEAFNSVYGAGRCQIINNGIDLATEAILAQLSPVPLNPGKPRIAIVAHDLRYDGKTDQRLVHDMMALGEKIELHTFGKFSPFTGQNVVNHGFETDKRKLMSALNEMDALVFSSRVDNYPLILCEALSIGVPVIATHSEAAQEVLAKSGGQTFAATDVLRLAQRRKPEIAQAVFGATLDAFRMRSRVAYSGQQMLEEYVSFYQNLLEHHHHHH | not soluble |
| MAHHHHHHMTTVPESTCAASCESQLCLLCDTPYTSWTEHSREHAHVARSVVCRFFVMPERSESIMQHLERHIALDLKEVDALTDRKVGRRRERLLAGLVHLVEKGVLRDSIPTLPFSTPARGGTDKGRGAGISGVTLGVDADLFLNRVLVGEAFLRREVLDRCARLMPSLTAMELNSVVTYLTSTRQMARIFDELSLIELLVTRSGLESAPANVNTATAAATAAGRAAESASVEPLSETAAAPLPDSDASTESPPAHQPCSSTLAASLPSPPRWSLSREDKVYIMCACLGELHRFHEQERPRSVISKAAADAIVLNVLAGHGRENLVSELVHETLQRIVDEGTVVWRQHQEDVKRRGRSSEANVAGAARISARRAPRTDSTVSEDLCYVRTAPLPSAPSPRPASQVTLDSAAAEQLVSSYLPFNDVDQLSGAETDAVKATAEAPSRSSPDRTCTTSPECISVLHTSEKDWGPLTAELRKRAEDWNRLPFVPSTPELKASKMPR | not soluble |
| MPYIALEDGFLRSFGTGRHFPPLSLVVDRLGIYYDATRESELECLLASSRTLLDGIEDAVPEAMELVRERRLSKYNHGGFLATGVPADGRRRVLVVDQTEGDMSVTLGCAEAATFEAMLAAARAENPGALICVKTHPEVAAGDKSGYLSRVTDDADTLALRHDMNPLALLEQMDRVYVVSSQMGFEALMLDKPVICFGMPWYAGWGVTDDRQRCERRGRARSVEELFAGAYFHYTRYLDPVLH | not soluble |
| MVTFMITSALHRAADWAKSVFSSAALGDPRRTARLVNVAAQLAKYSGKSITISSEGSKAAQEGAYRFIRNPNVSAEAIRKAGAMQTVKLAQEFPELLAIEDTTSLSYRHQVAEELGKLGSIQDKSRGWWVHSVLLLEATTFRTVGLLHQEWWMRPDDPADADEKESGKWLAAAATSRLRMGSMMSNVIAVCDREADIHAYLQDKLAHNERFVVRSKHPRKDVESGLYLYDHLKNQPELGGYQISIPQKGVVDKRGKRKNRPARKASLSLRSGRITLKQGNITLNAVLAEEINPPKGETPLKWLLLTSEPVESLAQALRVIDIYTHRWRIEEFHKAWKTGAGAERQRMEEPDNLERMVSILSFVAVRLLQLRESFTPPQALRAQGLLKEAEHVESQSAETVLTPDECQLLGYLDKGKRKRKEKAGSLQWAYMAIARLGGFMDSKRTGIASWGALWEGWEALQSKLDGFLAAKDLMAQGIKIG | soluble |
| MKAARQQAIVDLLLNHTSLTTEALSEQLKVSKETIRRDLNELQTQGKILRNHGRAKYIHRQNQDSGDPFHIRLKSHYAHKADIAREALAWIEEGMVIALDASSTCWYLARQLPDINIQVFTNSHPICHELGKRERIQLISSGGTLERKYGCYVNPSLISQLKSLEIDLFIFSCEGIDSSGALWDSNAINADYKSMLLKRAAQSLLLIDKSKFNRSGEARIGHLDEVTHIISDERQVATSLVTA | soluble |
| MKIAGIDEAGRGPVIGPMVIAAVVVDENSLPKLEELKVRDSKKLTPKRREKLFNEILGVLDDYVILELPPDVIGSREGTLNEFEVENFAKALNSLKVKPDVIYADAADVDEERFARELGERLNFEAEVVAKHKADDIFPVVSAASILAKVTRDRAVEKLKEEYGEIGSGYPSDPRTRAFLENYYREHGEFPPIVRKGWKTLKKIAEKVESEKTQDMINKST | soluble |
| MGSSHHHHHHGKTIFVIVPTNEEQVAFLEALAKQDELNFDWQNPPTEPGQPVVILIPSDMVEWFLEMLKAKGIPFTVYVEEGGSENLYFQGGGGGGDRMRQGWLRSSAALLERVHGHLKDQDRIFTNLYNDFGTGIDAAERRGDWYRTKDILLKGHDWVINEIKASGLRGRGGAGFPSGLKWSFMPKKKQDDRPSYIVVNCDESEPGTCKDREIMRHEPHKVVEGALLAGFAMRARYGYIYIRGEFYNEWRSVEKAIHEAYEKGYLGKNACGSGWDFDLYTYRGAGAYICGEETAMIASIEGGQGKPRLKPPFPANVGLYGCPTTVTNCETVAVSPTIIRRGPQWFAQFGRKGNAGTKLFCISGHVNRPCTVEEEMSMPLRELLERHAGGVRGGWDNLLCVIPGGSSCPLIPKHICDDILMDYDALKEAQTGLGTAAVIVMDKSTDVINAIERLSQFYMHESCGQCTPCREGSPWLDKMMKRFVNGNAKKEEIYTLWDVSKQMEGRSICALGTAAAWPVQGLIRHFKPLMEERIERFWEANPHWGQPGSPWRRWKTHRYYTMQKGDRLNWDGKIVRNWN | not soluble |
| MNDVVLSCKNVSKKYTEFKTDIAILKDVNLEIKKGEKVAILGLSGSGKTTLLNVLGGLDKCSAGEVYLMGERFDNQSVNKRAKMRNKHLGFIYQLHHLLPEFTAIENVMIPLAITKKYTKKESIKLANEILKKVGLDHRADHKPAELSGGERQRVAIARALVTNPNCILADEPTGNLDSQRSESIFALMQQLSDDFGTSFVIVTHDEKLASRMNKIYRLVDGELELVINSN | not soluble |
| GSMIDKSAFVHPTAIVEEGASIGANAHIGPFCIVGPHVEIGEGTVLKSHVVVNGHTKIGRDNEIYQFASIGEVNQDLKYAGEPTRVEIGDRNRIRESVTIHRGTVQGGGLTKVGSDNLLMINAHIAHDCTVGNRCILANNATLAGHVSVDDFAIIGGMTAVHQFCIIGAHVMVGGCSGVAQDVPPYVIAQGNHATPFGVNIEGLKRRGFSREAITAIRNAYKLIYRSGKTLDEVKPEIAELAETYPEVKAFTDFFARSTRGLIR | soluble |
| MLRLARKGLQTAVVRSYAKDVKFGAEGRQAMLVGVNLLADAVSVTMGPKGRNVIIEQSWGSPKITKDGVTVAKSIDLKDKYQNLGAKLIQDVANKANEEAGDGTTCATVLARAIAKEGFESIRQGGNAVEIRRGVMNAVEVVVAELKKISKKVTTPEEIAQVATISANGDTVVGNLISDAMKKVGTTGVITVKDGKTLNDELELIEGMKFDRGYISPYFITSAKGAKVEYEKALVLLSEKKISQVQDIVPALELANKLRRPLVIIAEDVDGEALTTLVLNRLKVGLQVVAIKAPGFGDNRKNTLKDMGIATGATIFGDDSNLIKIEDITANDLGEVDEVTITKDDTLLLRGRGDQTEIEKRIEHITDEIEQSTSDYEKEKLNERLAKLSKGVAVLKIGGGSEVEVGEKKDRVTDALCATRAAVEEGIVPGGGVALLRSLTALKNYKAANEDQQIGVNIVKKALTQPIATIVKNAGLEPSSIIDEVTGNSNTSYGYDALNGKFVDMFEAGIIDPTKVVRTALQDASGVASLLATTECVVTEIPKEEAVGGPAGGMGGMGGMGGMGGMGF | not soluble |
| GSPELGFSFDYAYQPIVNLHDQSIFAHEALVRGPNGEGAMSVLNQVTDQNRYRFDQKCRTTAIAGAAKLGMTERLSINFLPNAVYRPELCIRSTLEAAKQHDFPIERLIFETIESEHVDNNNHLSNILREYREFGFMTAIDDFGAGYSGLTLLADFQPDLIKLDMNLVRDIHRDRARQAIVRGVVTMCKDLGIKLIAEGIEHIEERDFLADCGISLMQGYLFAKP | not soluble |
| MYSEERRRQIASLTAVEGRVNVTELAARFDVTAETIRRDLAVLDREGVVHRVHGGAVANQTFQTAEFSLDTRSRSASGAKNSIAHAALSYLPEAQGGLFLDAGTTTAALAELLAAQPFAKHWSIVTNSLSIALTLANSGLDEIQLLGGSVRAITQAVVGDTALRTLALMRADVAFIGTNALTIDHGLSTADSQEAAIKSAMITNAHKVVVLCDSTKMGTDYLVSFGSISDIDVIITDANAPESFVKALRDRDVEVIIA | not soluble |
| MGSDKIHHHHHHMSHVSLKDVQVLAPNFKRRLSGVTSTIVQLIPVQNRLGQKVGTIGPGLPPHLPHVRFRDLWRLWQNGPSGGPRIWHARRNLEMLPGIFMRDVLRMKVKLLFTSAAQRRHSAYTRFLISKMDAVVATSTRSGSFLEVPHRVVMHGVDTELFHPATGPEDTIAATGLPGHYLLGCFGRVRHQKGTDLFVRAMIELLPHYPQWTAVVSGRVTAEHKAFGDTLKADVAAAGLTDRIIFQGEVDDIKPWYRRLTLYVAPSRNEGFGLTPLEAMASETAVVASNAGAYEEMIVTGETGWVVGAGDYASLRDAIKTYLADPALAKAHASAGLAHVRSTFPLEKEATCLGEVYEALQRG | not soluble |
| MTTKFVVGYDGSAASRRALDFAMERAKAGGASIIVAHVLEWSPYSFLTPTEIEERHKRRAEEMARAETAILAPLKAELAGSGVEIETAIRYGQVADTLCDIATKSGAAQIFIARQGESGLAARVFGSVAGTLAQYAPVPCTIVP | not soluble |
| MGHHHHHHSHMEGMDVDLDPELMQKFSCLGTTDKDVLISEFQRLLGFQLNPAGCAFFLDMTNWSLQAAIGAYYDFESPNISVPSMSFVEDVTIGEGESIPPDTQFVKTWRIQNSDVIWVILSVEVGGLLGVTQQLSSFETEFNTQPHRKVEGNFNPFASPQKNRQSDENNLKDPGGSEFDSISKNTWAPAPDTWAPAPDQTEQDQNRLSQNSVNLSPSSHANNLSVVTYSKGLHGPYPFGQS | soluble |
| MSLTERVLVTGGGGFVACHLIQQLLASGNVVNTTVRNLTNRAKVLPLLTLQKQHPGKLYLFEADLLVDGAFDAPMHDCTVVHHVASPFLLPEKIKDGRREMLEPALLGTRNVLSSVDKTPSVLRVVMTSTVGAIFGDYIDVLHMKNKTLTEDYFNTSSTLETNPYHYAKVEAEKEAWRICEKQTRWSLVTINPGMILGPSLTPASDSGSLFLLDEMFRGYFFYGMPDLSLTTVDVRDVAAAHIIAANKVDAQGRYILAEQHMISFVEIAGIVRRLHRRPWLLPRYRIPDAIVRLIGPFFGLTQDYLSKHLGIRFVVDNQRSLNDLGIKYRSITETLTDHYRCWDMQRQLNEGHHHHHH | soluble |
| MGSDKIHHHHHHMQATDIATQQALAAALGVNRSAVTQAKNRDAIPQKWILQLARAYHLAPDWLEFGKGRQHQPPTSLHDPETVLVPRVKAVLSAGGGSLDVSGGVVENLPFRYDWLARRGHPAHMVLMNVTGDSMEPGIRHGDTLLIDQSHVTAQTGGVYAFGYEDSILVKRFGRDADAILLLSDNTAYAPIRIRGDEADLLHVIGKIVWLCRAVQ | not soluble |
| MHDALRAYIEKYASEKISDADFEEVKKAFTFKRYKKGQFLLQEGEVSKYTAFVLKGSMRQYSVDAKGTEHIIHFGIENWWVGDRESSTMLTPSNYNIDAIEDTEVLLTTSEDLQQLTAALPVIGKMVNTMNQRNFIASQKRIHDALSLTAEERYLELLKNHPDFLQRFPQTMLASYLGITAETYSRIRKKALK | not soluble |
| MSKVVPIASLTPYQSKWTICARVTNKSQIRTWSNSRGEGKLFSLELVDESGEIRATAFNEQVDKFFPLIEVNKVYYFSKGTLKIANKQFTAVKNDYEMTFNNETSVMPCEDDHHLPTVQFDFTGIDDLENKSKDSLVDIIGICKSYEDATKITVRSNNREVAKRNIYLMDTSGKVVTATLWGEDADKFDGSRQPVLAIKGARVSDFGGRSLSVLSSSTIIANPDIPEAYKLRGWFDAEGQALDGVSISDLKS | soluble |
| MECETDEQKQGSDENMSECETSSVCSSSDTGLFTNDEGRQGDDEQSDWFYEGECVPGFTVPNLLPKWAPDHCSEVERMDSGLDKFSDSTFLLPSRPAQRGYHTRLNRLPGAAARCLRKGRRRLVGKETSINTLGTERISHIISDPRQKDFWLPSAGKRERNQFNPLSPLYSLDVLADASHRRCSPAHCSARQANVHWGPPCSRVIKRKRKPVATASLSSPSAVHMDAVEPTTPASQAPKSPSSEWLVRTSAAEKATDATTATFFKMPQEKSPGYSLEHHHHHH | soluble |
